Measured values from US20130017550.

Legend:
[1] = biological target: GST-PKC-θ, Q04759
[2] = biological target: Myc-PKC-θ

Chain of GST-PKC-θ, Q04759 (Q04759 whole entry, looked up): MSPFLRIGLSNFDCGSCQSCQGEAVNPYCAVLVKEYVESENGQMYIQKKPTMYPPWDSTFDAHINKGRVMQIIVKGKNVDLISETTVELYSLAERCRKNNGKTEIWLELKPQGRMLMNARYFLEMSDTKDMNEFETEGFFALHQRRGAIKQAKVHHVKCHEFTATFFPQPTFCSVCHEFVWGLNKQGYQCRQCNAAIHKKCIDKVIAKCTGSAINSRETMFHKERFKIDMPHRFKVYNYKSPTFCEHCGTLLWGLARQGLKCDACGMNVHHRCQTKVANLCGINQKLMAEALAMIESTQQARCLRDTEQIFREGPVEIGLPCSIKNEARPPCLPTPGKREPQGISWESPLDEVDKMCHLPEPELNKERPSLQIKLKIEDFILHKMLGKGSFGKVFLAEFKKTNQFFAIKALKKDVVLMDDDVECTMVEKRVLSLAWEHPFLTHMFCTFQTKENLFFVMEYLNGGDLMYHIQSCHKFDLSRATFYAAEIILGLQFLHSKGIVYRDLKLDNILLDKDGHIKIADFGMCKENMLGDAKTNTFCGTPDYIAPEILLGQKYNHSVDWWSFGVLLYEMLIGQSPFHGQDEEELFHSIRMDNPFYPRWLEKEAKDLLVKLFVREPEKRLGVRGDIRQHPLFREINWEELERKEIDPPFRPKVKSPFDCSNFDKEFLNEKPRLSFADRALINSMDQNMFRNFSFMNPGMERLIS

B1: Flag-GLK (protein)
chain: MAQEDFELIQRIGSGTYGDVYKARNVNTGELAAIKVIKLEPGEDFAVVQQEIIMMKDCKHPNIVAYFGSYLRRDKLWICMEFCGGGSLQDIYHVTGPLSELQIAYVSRETLQGLYYLHSKGKMHRDIKGANILLTDNGHVKLADFGVSAQITATIAKRKSFIGTPYWMAPEVAAVERKGGYNQLCDLWAVGITAIELAELQPPMFDLHPMRALFLMTKSNFQPPKLKDKMKWSNSFHHFVKMALTKNPKKRPTAEKLLQHPFVTQHLTRSLAIELLDKVNNPDHSTYHDFDDDDPEPLVAVPHRIHSTSRNVREEKTRSEITFGQVKFDPPLRKETEPHHELPDSDGFLDSSEEIYYTARSNLDLQLEYGQGHQGGYFLGADKSLLKSVEEELHQRGHVAHLEDDEGDDDESKHSTLKAKIPPPLPPKPKSIFIPQEMHSTEDENQGTIKRCPMSGSPAKPSQVPPRPPPPRLPPHKPVALGNGMSSFQLNGERDGSLCQQQNEHRGTNLSRKEKKDVPKPISNGLPPTPKVHMGACFSKVFNGCPLKIHCASSWINPDTRDQYLIFGAEEGIYTLNLNELHETSMEQLFPRRCTWLYVMNNCLLSISGKASQLYSHNLPGLFDYARQMQKLPVAIPAHKLPDRILPRKFSVSAKIPETKWCQKCCVVRNPYTGHKYLCGALQTSIVLLEWVEPMQKFMLIKHIDFPIPCPLRMFEMLVVPEQEYPLVCVGVSRGRDFNQVVRFETVNPNSTSSWFTESDTPQTNVTHVTQLERDTILVCLDCCIKIVNLQGRLKSSRKLSSELTFDFQIESIVCLQDSVLAFWKHGMQGRSFRSNEVTQEISDSTRIFRLLGSDRVVVLESRPTDNPTANSNLYILAGHENSY
Question: B1 was tested. Which “PKC-θ-T538 phosphorylation in in vitro kinase assays using purified proteins (immunoblot)” value [1] did it give?
Answer: The value was “PKC-θ-T538 was directly phosphorylated by GLK”.

Question: What about the “PKC-θ phosphorylation in in vitro kinase assays (immunoblot)” value [2] of the same protein?
Answer: The value was “GLK phosphorylated PKC-θ at T538, but not at S676 or S695”.
